Measured values from the RNAGym collection of RNA variant scans (doi:10.7554/elife.80360).

B1: Twister Ribozyme (parent)
chain: AACACUGCCAAUGCCGGUCCCAAGCCCGGAUAAAAGUGGAGGGGGCGG

Variants of: B1
Assay: self-cleavage, relative activity (ratio to wild type); higher = more cleavage; co-transcriptional

In order of rising self-cleavage:
1. C20G A23G  0.0348
2. C20G A32U  0.0524
3. C20G C25A  0.0525
4. C20G C26U  0.0527
5. C20A A22G  0.0601
6. C20G A22G  0.0602
7. C20G A30C  0.0614
8. C20A C26U  0.0622
9. C20G G41A  0.0636
10. C20A G38C  0.0639
11. C20G A33C  0.0661
12. C20A C21A  0.0664
13. C20G U37G  0.0665
14. C20G C25U  0.0692
15. C20U A34C  0.0697
16. C19U C21A  0.0697
17. C20A G36A  0.0747
18. C20G G43A  0.0749
19. C20G C21A  0.0754
20. C20G G41C  0.0754
21. C20G A33G  0.0756
22. C20A C27G  0.0759
23. C20A A22U  0.0761
24. C20A U37A  0.0773
25. C20G A32C  0.078
26. C20A C46A  0.0788
27. C20A G38U  0.0791
28. C20U G24A  0.0805
29. C20A G39C  0.0811
30. C20U C27G  0.0816
31. C20A G41U  0.0817
32. C20A C25A  0.0826
33. C20A C21G  0.0829
34. C20G G42A  0.083
35. C20G A34C  0.0838
36. C20G G36A  0.0839
37. C20A G39U  0.0846
38. C20A C27U  0.0852
39. C20A G29C  0.0857
40. C20G G44C  0.0871
41. C20U C25G  0.088
42. C20A G41C  0.0888
43. C20A C26A  0.0889
44. C19U G24U  0.0889
45. C20A C27A  0.0891
46. C20G G24U  0.0899
47. C20G A32G  0.0903
48. C20A A33C  0.0903
49. C19U G24A  0.0904
50. C20A G24C  0.0912
51. C20A G24U  0.0913
52. C20A C21U  0.0931
53. C20A G28U  0.0952
54. C19U G39C  0.0962
55. C20U C26G  0.0973
56. C20A G28A  0.0974
57. C19U C27G  0.0975
58. C20A A23C  0.1
59. C20A A34C  0.102
60. C20A G47U  0.103
61. C20A G29U  0.103
62. C20G C21G  0.103
63. C20G A40G  0.104
64. C19U C21G  0.107
65. C20A G44U  0.107
66. C20A G42A  0.107
67. C19U A40G  0.108
68. C20A U37G  0.109
69. C20A A30C  0.109
70. C20G G24A  0.109
71. C20A U37C  0.111
72. C20A G24A  0.114
73. C20A A33G  0.116
74. C19U C26A  0.116
75. C20A U31C  0.117
76. C19U A23C  0.117
77. C20U A22G  0.119
78. C20G G48U  0.12
79. C20G G24C  0.123
80. C20G G48A  0.124
81. C20U G41A  0.124
82. C20U A40U  0.125
83. C19U G41U  0.125
84. C20A G28C  0.125
85. C19U G39U  0.125
86. C20G C46G  0.126
87. C19U G36C  0.129
88. C20G A33U  0.13
89. C20G G45C  0.136
90. C20G A35C  0.14
91. C20G G28A  0.141
92. C20U G41U  0.141
93. C19U G42U  0.142
94. C20A G45A  0.144
95. C20U G43U  0.146
96. C20G G29U  0.146
97. C20U A40G  0.149
98. C20A A35U  0.151
99. C20A C46U  0.154
100. C20G A30U  0.165
101. C20A G48C  0.169
102. C20U A23U  0.17
103. C20A G45U  0.17
104. C20U C27A  0.171
105. C20G G28C  0.171
106. C20A A30U  0.175
107. C19U C27A  0.176
108. C19U C25G  0.176
109. C20A U31G  0.177
110. C20U G43A  0.177
111. C20A A32U  0.186
112. C20G G29A  0.189
113. C20A A35C  0.191
114. C20A G44A  0.198
115. C20U G36A  0.216
116. C19U G47C  0.235
117. C19U U37C  0.242
118. C19U G39A  0.28
119. C20U G39A  0.288
120. C20U G29C  0.305
121. C19U G38U  0.36
122. C19U G45C  0.38
123. C20G G42U  0.386
124. C20U G42U  0.399
125. C20U A30C  0.533
126. C20U A22U  0.543
127. C20U C25U  0.545
128. C19U A34U  0.56
129. C19U G44C  0.608
130. C19U C25U  0.623
131. C20A G42U  0.668
132. C19U U31A  0.682
133. C19U A35G  0.683
134. C20U C27U  0.708
135. C20U G28C  0.774
136. C19U G38C  0.782
137. C20G G42C  0.791
138. C20U G45U  0.802
139. C20U G38A  0.802
140. C19U G29A  0.806
141. C20U G28A  0.809
142. C20U G44C  0.816
143. C20U A30G  0.823
144. C20U G38C  0.841
145. C19U G38A  0.855
146. C19U G44U  0.86
147. C20U A35C  0.881
148. C19U A33G  0.889
149. C20U G44U  0.893
150. C20U A33C  0.894
151. C19U G28C  0.908
152. C19U G48A  0.915
153. C19U G45A  0.915
154. C19U A30G  0.918
155. C20U G29U  0.921
156. C20U G42A  0.935
157. C19U U31G  0.956
158. C19U U31C  0.971
159. C19U A35U  0.972
160. C20U A33G  0.988
161. C20U G44A  1
162. C19U A32U  1.02
163. C19U G43U  1.02
164. C19U G44A  1.03
165. C19U G43A  1.04
166. C20U A30U  1.05
167. C20U A35U  1.08
